Test: soluble on expression in E. coli; label from the status in PepcDB or PDB records

Sequence	soluble on expression in E. coli
MNQHLLGNPKLTVTHVNEVKAGINHIVVDSVQYGNQEMIMEKDGTVEMRDGEKLYINIFRPNKDGKFPVVMSADTYGKDNKPKITNMGALWPTLGTIPTSSFTPEESPDPGFWVPNDYVVVKVALRGSDKSKGVLSPWSKREAEDYYEVIEWAANQSWSNGNIGTNGVSYLAVTQWWVASLNPPHLKAMIPWEGLNDMYREVAFHGGIPDTGFYRFWTQGIFARWTDNPNIEDLIQAQQEHPLFDDFWKQRQVPLSQIKTPLLTCASWSTQGLHNRGSFEGFKQAASEEKWLYVHGRKEWESYYARENLERQKSFFDFYLKEENNDWKDTPHVIYEVRDQFYKGEFKSASAFPLPNAEYTPLYLNAENHTLNHAKISSAHVAQYDSEDKQQDVSFKYTFDKDTELVGNMNLKLWVSTKDSDDMDLFAGIKKLDRRGNEVNFPDFNHIENGQVATGWLRVSHRELDQEKSSIAQPWHKHETELKLSQDEIVPVEIELLPSGTLFKQGETLEVVVKGSEIVIGNSTPGMKTRYEHEETVNKGMHMIYTGGKYDSQLIIPIVN	soluble
MITIDGNGAVASVAFRTSEVIAIYPITPSSTMAEQADAWAGNGLKNVWGDTPRVVEMQSEAGAIATVHGALQTGALSTSFTSSQGLLLMIPTLYKLAGELTPFVLHVAARTVATHALSIFGDHSDVMAVRQTGCAMLCAANVQEAQDFALISQIATLKSRVPFIHFFDGFRTSHEINKIVPLADDTILDLMPQVEIDAHRARALNPEHPVIRGTSANPDTYFQSREATNPWYNAVYDHVEQAMNDFSAATGRQYQPFEYYGHPQAERVIILMGSAIGTCEEVVDELLTRGEKVGVLKVRLYRPFSAKHLLQALPGSVRSVAVLDRTKEPGAQAEPLYLDVMTALAEAFNNGERETLPRVIGGRYGLSSKEFGPDCVLAVFAELNAAKPKARFTVGIYDDVTNLSLPLPENTLPNSAKLEALFYGLGSDGSVSATKNNIKIIGNSTPWYAQGYFVYDSKKAGGLTVSHLRVSEQPIRSAYLISQADFVGCHQLQFIDKYQMAERLKPGGIFLLNTPYSADEVWSRLPQEVQAVLNQKKARFYVINAAKIARECGLAARINTVMQMAFFHLTQILPGDSALAELQGAIAKSYSSKGQDLVERNWQALALARESVEEVPLQPVNPHSANRPPVVSDAAPDFVKTVTAAMLAGLGDALPVSALPPDGTWPMGTTRWEKRNIAEEIPIWKEELCTQCNHCVAACPHSAIRAKVVPPEAMENAPASLHSLDVKSRDMRGQKYVLQVAPEDCTGCNLCVEVCPAKDRQNPEIKAINMMSRLEHVEEEKINYDFFLNLPEIDRSKLERIDIRTSQLITPLFEYSGACSGCGETPYIKLLTQLYGDRMLIANATGCSSIYGGNLPSTPYTTDANGRGPAWANSLFEDNAEFGLGFRLTVDQHRVRVLRLLDQFADKIPAELLTALKSDATPEVRREQVAALRQQLNDVAEAHELLRDADALVEKSIWLIGGDGWAYDIGFGGLDHVLSLTENVNILVLDTQCYSNTGGQASKATPLGAVTKFGEHGKRKARKDLGVSMMMYGHVYVAQISLGAQLNQTVKAIQEAEAYPGPSLIIAYSPCEEHGYDLALSHDQMRQLTATGFWPLYRFDPRRADEGKLPLALDSRPPSEAPEETLLHEQRFRRLNSQQPEVAEQLWKDAAADLQKRYDFLAQMAGKAEKSNTD	soluble
MGSDKIHHHHHHMKNFVTSERSIFEMEKSTEPAIRVKDGSVVKIKTKDHFNGQIHAKQLHYGELDWKQFSPTTGPIYIEEARPGDLLAITIEKIELLGTEVFLLNGPNIGITDDLLTSNSTRCYKVENNQIIYSEDIHIPIRKTIGLLKTEELNPSKVPTKNGGLLDSSKITEGATIFLPVEKYGASLHVGNVRATTGFGKITATSAEAPAEVTLRLQILKNRTAPTPTIIHYHNLICLASDITIEKATQKTMHNMITLLTESDKMTTEDALFLISLQADFQVCKLCKPNITTSIKLPLDYFPEMPFL	not soluble
MGSDKIHHHHHHALLWFSRFQRTGKLCVSLGWLLLTLLSLQPVADSLLKPIEDTYPTWRGEQPVNYVVVLGGGYTWNPEWAPSSNLINNSLPRLTEGIRLWQANPGSKMIFTGAAAKTNPVSTAEAGARVAESLGVPRSDIIVLDRPKDTEEEALAVKRAIGDAPFLLVTSASHLPRAMIFFRHAGLDPLPAPANQLAVTSPLNPWERAIPSPVWLMHSDRVGYETLGRVWQWLKGSSGEPGQE	not soluble
MVIVINYKTYNESIGNRGLEIAKIAEKVSEESGITIGVAPQFVDLRMIVENVNIPVYAQHIDNINPGSHTGHILAEAIKDCGCKGTLINHSEKRMLLADIEAVINKCKNLGLETIVCTNNINTSKAVAALSPDCIAVEPPELIGTGIPVSKANPEVVEGTVRAVKEINKDVKVLCGAGISKGEDVKAALDLGAEGVLLASGVVKAKNVEEAIRELIKFI	soluble
KIVCDFTEYNPLHKGHKYALEKGKEHGIFISVLPGPLERSGRGIPYFLNRYIRAEMAIRAGADIVVEGPPMGIMGSGQYMRCLIKMFYSLGAEIIPRGYIPEKTMEKVIDCINKGYHIQVKPYKIICIETGEILGEKLNIDNYVIASMSQMIYKLNREGLKFNPKFVFVKRLEGISGTKIREAIFSGKFEDIKNMLPKTTLSILKELYDNGKL	not soluble
THPVEAAERNYERARAELNQANEDVARNQERQAKAVQVYNSRKSELDAANKTLADAIAEIKQFNRFAHDPMAGGHRMWQMAGLKAQRAQTDVNNKQAAFDAAAKEKSDADAALSAAQERRKQKENKEKDAKDKLD	soluble
MIRMSVLASGSTGNATYVESDKGSILVDAGLTGKKMEELFGQIDKQIQNLNGILVTHEHSDHIKGLGVLARKYKLPIYANEKTWTAIEKKDSKIPMDQKFIFNPYETKSLAGFDIESFNVSHDAIDPQFYIFHNNYKKFTILTDTGYVSDRMKGMIQGSDAFVFESNHDVDMLRMCGYPWKTKQRILSDMGHVSNEDAGRAMTDVITGSTKRIYLSHLSQDNLEHHHHHH	not soluble
MASYSEDQCSWRGSGLSQAVKNVEQVWLRCAEGSVEWLYPAGALRLTLSPRLPWSAMGPGESSRSPVSVCVKPDPHWGGAQLYLERDGVLELLVGDETSTTPGPAHVRCFSALPGERPALFLQATPHRDISRRIAAFRYELRGDWTAQPAVNTDPVSSEGACRPCNNTEILMAVCTSDFVVRGNIRSVGTDSNLNAAVIKVSATRVYRQKFALFPESGRLTRSGEIRTPLQCGVRPGAGSFLFTGRVHFGEAWLGCAPRYKDFLKAYEQAKQSLMIPCTLVND	not soluble
MAENFQLPYLSLQNEKVDMVFDLFNKTIRNGEKVTFAFSGGKDSTTLAILFYEWLKIRHDIECTITLLHNDTSSEIDPMENWARNFMTSYKTEIEDITEGRVKINIDIRTPKVIDTFYWRMLIRGYPAPSFNFRWCVHLLKEKPANLDSIEETMFTGLREAESSERRILMRKKYGNSCSASPGGCMAYYYSTEGKGNKVAPMRDWTDGDVWSFLTLYRNTGGINISPIFMLYPNPKVRYGCWHCTLASVQWGLQSLGGGLEYFEAVRILYRKFSDLPYLRIKKNTGYSKLGPLNAAGRALMLKSIALAEDLSNVKLYGLDINLLEGKSIRDILFNLDPKEATALIKKYDPNIPRFRYIPIDKIRNIQKYKELALRALIDVKRNCANDKAYILLDTKLENPLITLLNRIEDLLS	not soluble
MVSAGGVVLKGDPPEVLVVSLRGGRVVTLPKGQVEPGERYPETAVREVREETGVEASVLAPLGRVRYYFTVHEPEGPVTVSKEVHYFLMRHLGGTPRPQLTEVEDAFFLPASEALERLSYPNEREMLKRALLRLRARAKKG	soluble
WLRDVLDSEAFRHTQATLPMALGKDISGQPIVVDMAKMPHLLVAGQTGGGKSVGINTMILSLLFKLTPEQVRFIMIDPKVVELSVYNDIPHLLTPVVTDMKKAANALRWAVGEMERRYLLISHLQVRNIEGYNDKIDQASAMNFPIPDPTWRPADSIGQLPPPLTKLSYIVLIVDEFADLIMSAGKEVEEYIMRIAQKARAVGIHLILATQRPST	not soluble
MEATGLITEYNPFHNGHLYHLKKAQELTKADVTIVLMSGNWVQRGLPAITDKWKRAQAAIDAGADLVFELPFYYAVQAGEIFAQGAVRLLSDLQVSSIICGSEHADIDFINLAAHEPDISGNSNFDKKNRTFASNYAAALEEKTGFYLENANDILAFSYAKAILNQNLTEKIKLRTISRVSADYHDQFLNDGEIASATAIRKALSEGQNVDSYTPMSDLQY	not soluble
